Laboratory results taken from PMC10718521, “Complexity of αvβ6-integrin targeting RGD peptide trimers: emergence of non-specific binding by synergistic interaction” (RSC Medicinal Chemistry, 2023).

Key:
[1] = format: physicochemical; settings: pH 7.4
Procedure: The trimers were labeled with ^68Ga for biodistribution and small-animal PET experiments employing a fully automated method.[39] Non-radioactive reference compounds were obtained by complexation of equimolar amounts of ^natGa^3+ in form of the aq. chloride solution.[39] The polarity of the ^68Ga or ^natGa^3+ containing conjugates, respectively, was assessed by two established proxies, namely the n-octanol/water distribution coefficient at pH 7.4, log D7.4, and the retention time tR on a reverse-phase HPLC column with a suitable liquid-phase gradient (10–50% acetonitrile in water with 0.1% trifluoroacetic acid) (see Fig. 2a). […] A measurable decrease of the log D7.4 was only observed for ≥3 Tyr. […]
(§1) Unless otherwise noted, the materials and the instrumentation used (analytical and preparative HPLC, ESI-MS, gamma counter, centrifuge), and the experimental procedures (^68Ga radiolabeling and radio-TLC for quality control, determination of log D7.4, cultivation of H2009 human lung adenocarcinoma cells, generation of tumor xenografts in CB17 SCID mice, small-animal PET, and biodistribution) were described before.[19] All animal experiments have been carried out according to applicable law and institutional guidelines of Technical University of Munich, and were approved by the responsible local authority (Regierung von Oberbayern). The H2009 cells were regularly authenticated and tested for mycoplasma contamination. The affinities of the pentynoic amide functionalized peptides were determined employing a well-established ELISA protocol on immobilized integrins.[36] TRAP-triazide,[38]FF (previously termed AvB6),[32] and YY (also referred to as Tyr2-alkyne)[33] were synthesized as described previously. RP-HPLC for assessment of compound polarity was done on a 150 × 4.6 mm ReproSil-Pur 120 C18-AQ 5 μm column, with a flow of 0.75 mL min^−1 and a gradient of 10–50% MeCN in water, both containing 0.1% trifluoroacetic acid, within 15 min. The required ^natGa-complexes of the peptide trimers were synthesized by reaction with equimolar amounts of aq. GaCl3 as described.[19]

in vivo = assay: in vivo; design: species or system mice; settings: CB17 SCID, mouse, total radioactivity
Source text: The biodistribution of all ^68Ga-labeled peptide trimers was investigated in severe combined immunodeficiency (SCID) mice bearing subcutaneous xenografts of the αvβ6-integrin expressing human lung adenocarcinoma cell line H2009 on their right shoulders.
as §1

Row | Compound | log D7.4 [1] | logD [1] | tissue uptake at 1.5 h (in vivo; Adrenals uptake) [%ID/g] | tissue uptake at 1.5 h (in vivo; Blood uptake) [%ID/g] | tissue uptake at 1.5 h (in vivo; Heart (myocard) uptake) [%ID/g] | tissue uptake at 1.5 h (in vivo; Kidneys uptake) [%ID/g] | tissue uptake at 1.5 h (in vivo; Large intestine (empty) uptake) [%ID/g] | tissue uptake at 1.5 h (in vivo; Liver uptake) [%ID/g] | tissue uptake at 1.5 h (in vivo; Lung uptake) [%ID/g] | tissue uptake at 1.5 h (in vivo; Muscle uptake) [%ID/g] | tissue uptake at 1.5 h (in vivo; Pancreas uptake) [%ID/g] | tissue uptake at 1.5 h (in vivo; Small intestine (empty) uptake) [%ID/g] | tissue uptake at 1.5 h (in vivo; Spleen uptake) [%ID/g] | tissue uptake at 1.5 h (in vivo; Stomach (empty) uptake) [%ID/g] | tissue uptake at 1.5 h (in vivo; Tumor H2009 uptake) [%ID/g] | also measured
1 | CC(C)C[C@@H]1NC(=O)[C@H](CC(=O)O)NC(=O)CNC(=O)[C@H](CCCNC(=N)N)NC(=O)[C@H](Cc2ccccc2)NC(=O)[C@H](CCCCNC(=O)CCc2cn(CCCNC(=O)CCP(=O)(O)CN3CCN(CP(=O)(O)CCC(=O)NCCCn4cc(CCC(=O)NCCCC[C@H]5C(=O)N[C@@H](Cc6ccc(O)cc6)C(=O)N[C@@H](CCCNC(=N)N)C(=O)NCC(=O)N[C@@H](CC(=O)O)C(=O)N[C@@H](CC(C)C)C(=O)N[C@@H](C)C(=O)N[C@@H](Cc6ccccc6)C(=O)N6CCC[C@@H]6C(=O)N5C)nn4)CCN(CP(=O)(O)CCC(=O)NCCCn4cc(CCC(=O)NCCCC[C@H]5C(=O)N[C@@H](Cc6ccc(O)cc6)C(=O)N[C@@H](CCCNC(=N)N)C(=O)NCC(=O)N[C@@H](CC(=O)O)C(=O)N[C@@H](CC(C)C)C(=O)N[C@@H](C)C(=O)N[C@@H](Cc6ccccc6)C(=O)N6CCC[C@@H]6C(=O)N5C)nn4)CC3)nn2)N(C)C(=O)[C@H]2CCCN2C(=O)[C@H](Cc2ccccc2)NC(=O)[C@H](C)NC1=O (68Ga complex, metal not drawn) [Y2Y] | −1.4 to −1.5 | -1.5 ± 0.1 | 1.07 ± 0.27 | 1.91 ± 0.49 | 0.85 ± 0.16 | 80.8 ± 5.12 | 3.89 ± 0.73 | 2.59 ± 0.35 | 7.02 ± 1.34 | 0.63 ± 0.12 | 0.44 ± 0.07 | 2.23 ± 0.41 | 4.36 ± 0.79 | 6.55 ± 1.48 | 7.93 ± 0.28 | tissue to tissue ratio at 1.5 h (in vivo; tumor/organ ratio Adrenals): 7.8 ± 1.7; tissue to tissue ratio at 1.5 h (in vivo; tumor/organ ratio Blood): 4.4 ± 1.1; tissue to tissue ratio at 1.5 h (in vivo; tumor/organ ratio Heart (myocard)): 9.6 ± 1.8; tissue to tissue ratio at 1.5 h (in vivo; tumor/organ ratio Kidneys): 0.1; tissue to tissue ratio at 1.5 h (in vivo; tumor/organ ratio Large intestine (empty)): 2.1 ± 0.4; tissue to tissue ratio at 1.5 h (in vivo; tumor/organ ratio Liver): 3.1 ± 0.3; tissue to tissue ratio at 1.5 h (in vivo; tumor/organ ratio Lung): 1.2 ± 0.2; tissue to tissue ratio at 1.5 h (in vivo; tumor/organ ratio Muscle): 13 ± 2.5; tissue to tissue ratio at 1.5 h (in vivo; tumor/organ ratio Pancreas): 18.2 ± 2.3; tissue to tissue ratio at 1.5 h (in vivo; tumor/organ ratio Small intestine (empty)): 3.6 ± 0.7; tissue to tissue ratio at 1.5 h (in vivo; tumor/organ ratio Spleen): 1.9 ± 0.4; tissue to tissue ratio at 1.5 h (in vivo; tumor/organ ratio Stomach (empty)): 1.3 ± 0.3
2 | CC(C)C[C@@H]1NC(=O)[C@H](CC(=O)O)NC(=O)CNC(=O)[C@H](CCCNC(=N)N)NC(=O)[C@H](Cc2ccccc2)NC(=O)[C@H](CCCCNC(=O)CCc2cn(CCCNC(=O)CCP(=O)(O)CN3CCN(CP(=O)(O)CCC(=O)NCCCn4cc(CCC(=O)NCCCC[C@H]5C(=O)N[C@@H](Cc6ccccc6)C(=O)N[C@@H](CCCNC(=N)N)C(=O)NCC(=O)N[C@@H](CC(=O)O)C(=O)N[C@@H](CC(C)C)C(=O)N[C@@H](C)C(=O)N[C@@H](Cc6ccccc6)C(=O)N6CCC[C@@H]6C(=O)N5C)nn4)CCN(CP(=O)(O)CCC(=O)NCCCn4cc(CCC(=O)NCCCC[C@H]5C(=O)N[C@@H](Cc6ccccc6)C(=O)N[C@@H](CCCNC(=N)N)C(=O)NCC(=O)N[C@@H](CC(=O)O)C(=O)N[C@@H](CC(C)C)C(=O)N[C@@H](C)C(=O)N[C@@H](Cc6ccccc6)C(=O)N6CCC[C@@H]6C(=O)N5C)nn4)CC3)nn2)N(C)C(=O)[C@H]2CCCN2C(=O)[C@H](Cc2ccccc2)NC(=O)[C@H](C)NC1=O (68Ga complex, metal not drawn) [Y0] | −1.4 to −1.5 | -1.5 ± 0.1 | 2.4 ± 0.38 | 4.01 ± 0.74 | 2.13 ± 0.42 | 90.7 ± 6.7 | 5.74 ± 1.36 | 7.55 ± 0.78 | 16.9 ± 5.34 | 1.1 ± 0.22 | 0.91 ± 0.22 | 4.2 ± 1.07 | 5.21 ± 1.05 | 10.3 ± 1.62 | 8.73 ± 0.81 | 
